B1: NaKΔ18 (domain or fragment, Bacillus cereus, UniProt Q81HW2 19-114, looked up)
chain: WKDKEFQVLFVLTILTLISGTIFYSTVEGLRPIDALYFSVVTLTTVGDGNFSPQTDFGKIFTILYIFIGIGLVFGFIHKLAVNVQLPSILSNRKKE
B2: L35A/L61A NaKΔ18 (domain or fragment, Bacillus cereus, UniProt Q81HW2 19-114, looked up)
chain: WKDKEFQVLFVLTILTAISGTIFYSTVEGLRPIDALYFSVVTATTVGDGNFSPQTDFGKIFTILYIFIGIGLVFGFIHKLAVNVQLPSILSNRKKE
B3: L61A NaKΔ18 (domain or fragment, Bacillus cereus, UniProt Q81HW2 19-114, looked up)
chain: WKDKEFQVLFVLTILTLISGTIFYSTVEGLRPIDALYFSVVTATTVGDGNFSPQTDFGKIFTILYIFIGIGLVFGFIHKLAVNVQLPSILSNRKKE
B4: L35A NaKΔ18 (domain or fragment, Bacillus cereus, UniProt Q81HW2 19-114, looked up)
chain: WKDKEFQVLFVLTILTAISGTIFYSTVEGLRPIDALYFSVVTLTTVGDGNFSPQTDFGKIFTILYIFIGIGLVFGFIHKLAVNVQLPSILSNRKKE
B5: L61T NaKΔ18 (domain or fragment, Bacillus cereus, UniProt Q81HW2 19-114, looked up)
chain: WKDKEFQVLFVLTILTLISGTIFYSTVEGLRPIDALYFSVVTTTTVGDGNFSPQTDFGKIFTILYIFIGIGLVFGFIHKLAVNVQLPSILSNRKKE

Target: the molecule itself
Assay: SEC

Stoichiometry N, 4:
B1, B2, B3, B4, B5

— PMC9640265 (The Journal of General Physiology, 2022)
